Measured values published in patent US11278600B2, “Human alpha-galactosidase variants” (Codexis, Inc., priority 2014, dated 2022).
Positions count from the first letter of the chain named.

B1: 64 (protein)
chain: LDNGLARTPTMGWLHWERFMCNLDCQEEPDSCISEKLFMEMAELMVSEGWKDAGYEYLCIDDCWMAPQRDSEGRLQADPQRFPHGIRQLANYVHSKGLKLGIYADVGNKTCAGFPGSFGYYDIDAQTFADWGVDLLKFDGCYCDSLENLADGYKLMSLALNRTGRSIVYSCEWPLYMWPFQKPNYTEIRQYCNHWRNFADIDDSWKSIKSILDWTSFNQERIVDVAGPGGWNDPDMLVIGNFGLSWNQQVTQMALWAIMAAPLFMSNDLRHISPQAKALLQDKDVIAINQDPLGKQGYQLRQGDNFEVWERPLSGLAWAVAMINRQEIGGPRSYTIAVASLGKGVACNPACFITQLLPVKRKLGFYEWTSRLRSHINPTGTVLLQLENTMQMSKDLLL
modifications: Synthetic Polypeptide sequence of Variant No. 64 of mature Human GLA
B2: 72 (protein)
chain: B1 chain with L155H, I167V
modifications: Synthetic Polypeptide sequence of Variant No. 72 of mature Human GLA
B3: 66 (protein)
chain: B1 chain with L155T
modifications: Synthetic Polypeptide sequence of Variant No. 66 of mature Human GLA
B4: 68 (protein)
chain: B1 chain with H84S, L155H
modifications: Synthetic Polypeptide sequence of Variant No. 68 of mature Human GLA
B5: 73 (protein)
chain: B1 chain with L155H, K206A, K394L, D395K, L396D
modifications: Synthetic Polypeptide sequence of Variant No. 73
B6: 78 (protein)
chain: B1 chain with L155H, K343D
modifications: Synthetic Polypeptide sequence of Variant No. 78 of mature Human GLA
B7: 76 (protein)
chain: B1 chain with L155H, K206R, K394L, D395K, L396D
modifications: Synthetic Polypeptide sequence of Variant No. 76
B8: 70 (protein)
chain: B1 chain with I102L, L155H, K394V
modifications: Synthetic Polypeptide sequence of Variant No. 70 of mature Human GLA
B9: 69 (protein)
chain: B1 chain with I102L, L155H
modifications: Synthetic Polypeptide sequence of Variant No. 69 of mature Human GLA
B10: 77 (protein)
chain: B1 chain with L155H, K206T, V359S
modifications: Synthetic Polypeptide sequence of Variant No. 77 of mature Human GLA
B11: 71 (protein)
chain: B1 chain with I123T, L155H, T369N
modifications: Synthetic Polypeptide sequence of Variant No. 71 of mature Human GLA
B12: 65 (protein)
chain: B1 chain with L155R
modifications: Synthetic Polypeptide sequence of Variant No. 65 of mature Human GLA
B13: 75 (protein)
chain: B1 chain with L155H, K206Q
modifications: Synthetic Polypeptide sequence of Variant No. 75 of mature Human GLA
B14: 67 (protein)
chain: B1 chain with L155E
modifications: Synthetic Polypeptide sequence of Variant No. 67 of mature Human GLA
B15: 74 (protein)
chain: B1 chain with L155H, K206M
modifications: Synthetic Polypeptide sequence of Variant No. 74 of mature Human GLA

Experiments:
Type in all cases: biochemical
[1] = HTP-analysis of supernatants pretreated with acid (MUGal hydrolysis); details: challenge at pH 4.2; activity of the variant/activity of WT GLA (SEQ ID NO: 5); yeast supernatant
Outline: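 Fluorescence of MUGal hydrolysis (Ex. 355 nm, Em. 448 nm) is read after sodium carbonate quench. The enzyme source is INVSc1 yeast culture supernatant, first exposed to pH 3.3-4.3 McIlvaine buffer at 37° C. for 1-3 h, then reacted at pH 4.8 for 30-180 minutes.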

[2] = HTP-analysis of supernatants pretreated with base (MUGal hydrolysis); details: challenge at pH 7.1; activity of the variant/activity of WT GLA (SEQ ID NO: 5); yeast supernatant
Outline: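 GLA variants were secreted by transformed INVSc1 yeast grown 66-84 h at 30° C. Supernatants were exposed to neutral-to-basic buffers (pH 7.0-9.7) at 37° C for 1-18 h, then assayed with MUGal in acidic citrate/McIlvaine buffer, with fluorescence read after quenching.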

[3] = HTP-analysis of yeast culture supernatants, no challenge (MUGal hydrolysis); details: activity of the variant/activity of WT GLA (SEQ ID NO: 5), yeast supernatant
Outline: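 Activity read as 4-methylumbelliferyl α-D-galactopyranoside hydrolysis: fluorescence (355/448 nm) after sodium carbonate stop, following 30-180 min at 37° C with 2 mM MUGal stock at pH 4.6–4.8. Enzyme source is unchallenged culture supernatant of INVSc1 yeast expressing GLA variants, grown 66-84 h at 30° C.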

| Molecule | Relative Activity of GLA Variants After Challenge at pH 4.2 [1] | Relative Activity of GLA Variants After Challenge at pH 7.1 [2] | Relative Activity of GLA Variants After No Challenge (NC) [3] |
| --- | --- | --- | --- |
| B1 | + (+ = 0.5 to 1.5 relative activity over WT GLA (SEQ ID NO: 5)) | ++ (++ = >1.5 to 2.5 relative activity over WT GLA (SEQ ID NO: 5)) | + (+ = 0.5 to 1.5 relative activity over WT GLA (SEQ ID NO: 5)) |
| B2 | + (+ = 0.5 to 1.5 relative activity over WT GLA (SEQ ID NO: 5)) | + (+ = 0.5 to 1.5 relative activity over WT GLA (SEQ ID NO: 5)) | + (+ = 0.5 to 1.5 relative activity over WT GLA (SEQ ID NO: 5)) |
| B3 | + (+ = 0.5 to 1.5 relative activity over WT GLA (SEQ ID NO: 5)) | + (+ = 0.5 to 1.5 relative activity over WT GLA (SEQ ID NO: 5)) | + (+ = 0.5 to 1.5 relative activity over WT GLA (SEQ ID NO: 5)) |
| B4 | ++ (++ = >1.5 to 2.5 relative activity over WT GLA (SEQ ID NO: 5)) | + (+ = 0.5 to 1.5 relative activity over WT GLA (SEQ ID NO: 5)) | + (+ = 0.5 to 1.5 relative activity over WT GLA (SEQ ID NO: 5)) |
| B5 | +++ (+++ = >2.5 relative activity over WT GLA (SEQ ID NO: 5)) | ++ (++ = >1.5 to 2.5 relative activity over WT GLA (SEQ ID NO: 5)) | + (+ = 0.5 to 1.5 relative activity over WT GLA (SEQ ID NO: 5)) |
| B6 | ++ (++ = >1.5 to 2.5 relative activity over WT GLA (SEQ ID NO: 5)) | ++ (++ = >1.5 to 2.5 relative activity over WT GLA (SEQ ID NO: 5)) | ++ (++ = >1.5 to 2.5 relative activity over WT GLA (SEQ ID NO: 5)) |
| B7 | +++ (+++ = >2.5 relative activity over WT GLA (SEQ ID NO: 5)) | ++ (++ = >1.5 to 2.5 relative activity over WT GLA (SEQ ID NO: 5)) | + (+ = 0.5 to 1.5 relative activity over WT GLA (SEQ ID NO: 5)) |
| B8 | + (+ = 0.5 to 1.5 relative activity over WT GLA (SEQ ID NO: 5)) | + (+ = 0.5 to 1.5 relative activity over WT GLA (SEQ ID NO: 5)) | + (+ = 0.5 to 1.5 relative activity over WT GLA (SEQ ID NO: 5)) |
| B9 | + (+ = 0.5 to 1.5 relative activity over WT GLA (SEQ ID NO: 5)) | + (+ = 0.5 to 1.5 relative activity over WT GLA (SEQ ID NO: 5)) | + (+ = 0.5 to 1.5 relative activity over WT GLA (SEQ ID NO: 5)) |
| B10 | ++ (++ = >1.5 to 2.5 relative activity over WT GLA (SEQ ID NO: 5)) | + (+ = 0.5 to 1.5 relative activity over WT GLA (SEQ ID NO: 5)) | + (+ = 0.5 to 1.5 relative activity over WT GLA (SEQ ID NO: 5)) |
| B11 | + (+ = 0.5 to 1.5 relative activity over WT GLA (SEQ ID NO: 5)) | ++ (++ = >1.5 to 2.5 relative activity over WT GLA (SEQ ID NO: 5)) | ++ (++ = >1.5 to 2.5 relative activity over WT GLA (SEQ ID NO: 5)) |
| B12 | + (+ = 0.5 to 1.5 relative activity over WT GLA (SEQ ID NO: 5)) | + (+ = 0.5 to 1.5 relative activity over WT GLA (SEQ ID NO: 5)) | + (+ = 0.5 to 1.5 relative activity over WT GLA (SEQ ID NO: 5)) |
| B13 | +++ (+++ = >2.5 relative activity over WT GLA (SEQ ID NO: 5)) | ++ (++ = >1.5 to 2.5 relative activity over WT GLA (SEQ ID NO: 5)) | + (+ = 0.5 to 1.5 relative activity over WT GLA (SEQ ID NO: 5)) |
| B14 | + (+ = 0.5 to 1.5 relative activity over WT GLA (SEQ ID NO: 5)) | ++ (++ = >1.5 to 2.5 relative activity over WT GLA (SEQ ID NO: 5)) | ++ (++ = >1.5 to 2.5 relative activity over WT GLA (SEQ ID NO: 5)) |
| B15 | +++ (+++ = >2.5 relative activity over WT GLA (SEQ ID NO: 5)) | ++ (++ = >1.5 to 2.5 relative activity over WT GLA (SEQ ID NO: 5)) | + (+ = 0.5 to 1.5 relative activity over WT GLA (SEQ ID NO: 5)) |
